Legend:
[1] = target: T1, human CD96v2 expressed on cells (CHO cells; transiently transfected HEK cells) (human, UniProt P40200-2 22-569); test: flow cytometry on CHO cells expressing human CD96v2
T1 construct: whole, on cells; the cell is named under assay; also called CHO-huCD96; hCD96v2
T1 sequence (looked up): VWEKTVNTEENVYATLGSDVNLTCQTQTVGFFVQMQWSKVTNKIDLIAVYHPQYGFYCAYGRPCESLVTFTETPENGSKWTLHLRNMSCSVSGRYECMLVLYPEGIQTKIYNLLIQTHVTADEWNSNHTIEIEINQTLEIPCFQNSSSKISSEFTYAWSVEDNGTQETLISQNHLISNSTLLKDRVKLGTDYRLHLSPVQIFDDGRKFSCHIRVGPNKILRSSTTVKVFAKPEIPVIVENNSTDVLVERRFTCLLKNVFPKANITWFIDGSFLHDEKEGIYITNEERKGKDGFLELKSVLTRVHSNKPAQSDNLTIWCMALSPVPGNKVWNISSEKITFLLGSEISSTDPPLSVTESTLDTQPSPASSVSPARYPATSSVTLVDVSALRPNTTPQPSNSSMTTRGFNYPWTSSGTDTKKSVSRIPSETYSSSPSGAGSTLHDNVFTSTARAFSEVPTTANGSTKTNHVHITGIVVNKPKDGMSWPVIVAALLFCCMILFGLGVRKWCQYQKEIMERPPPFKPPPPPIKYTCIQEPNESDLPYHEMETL

[2] = target: T2, recombinant murine CD96v2 (mouse, UniProt Q3U0X8 22-536, limits assumed); test: MSD-SET solution equilibrium titration, antibody titrated against constant CD96, free antigen detected
T2 construct: Soluble recombinant protein used in MSD-SET; also called mouse CD96
T2 sequence (looked up): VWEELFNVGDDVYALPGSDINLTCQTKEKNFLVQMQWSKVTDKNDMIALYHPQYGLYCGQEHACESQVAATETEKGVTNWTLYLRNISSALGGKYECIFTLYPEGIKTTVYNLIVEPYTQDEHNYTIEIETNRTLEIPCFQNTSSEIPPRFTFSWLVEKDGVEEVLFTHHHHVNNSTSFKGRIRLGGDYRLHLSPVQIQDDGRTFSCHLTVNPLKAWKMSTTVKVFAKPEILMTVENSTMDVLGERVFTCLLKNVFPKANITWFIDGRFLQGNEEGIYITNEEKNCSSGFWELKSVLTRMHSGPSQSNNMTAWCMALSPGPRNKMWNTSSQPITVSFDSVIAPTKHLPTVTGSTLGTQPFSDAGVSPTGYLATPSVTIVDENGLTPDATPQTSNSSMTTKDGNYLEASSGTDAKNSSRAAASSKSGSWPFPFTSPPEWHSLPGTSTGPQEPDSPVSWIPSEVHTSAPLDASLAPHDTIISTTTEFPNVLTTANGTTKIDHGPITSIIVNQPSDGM

[3] = target: T3, human CD96v1 on transiently transfected HEK cells (human, UniProt P40200 22-585); test: flow cytometry on transiently transfected HEK cells (Human CD96v1)
T3 construct: whole, on cells
T3 sequence (looked up): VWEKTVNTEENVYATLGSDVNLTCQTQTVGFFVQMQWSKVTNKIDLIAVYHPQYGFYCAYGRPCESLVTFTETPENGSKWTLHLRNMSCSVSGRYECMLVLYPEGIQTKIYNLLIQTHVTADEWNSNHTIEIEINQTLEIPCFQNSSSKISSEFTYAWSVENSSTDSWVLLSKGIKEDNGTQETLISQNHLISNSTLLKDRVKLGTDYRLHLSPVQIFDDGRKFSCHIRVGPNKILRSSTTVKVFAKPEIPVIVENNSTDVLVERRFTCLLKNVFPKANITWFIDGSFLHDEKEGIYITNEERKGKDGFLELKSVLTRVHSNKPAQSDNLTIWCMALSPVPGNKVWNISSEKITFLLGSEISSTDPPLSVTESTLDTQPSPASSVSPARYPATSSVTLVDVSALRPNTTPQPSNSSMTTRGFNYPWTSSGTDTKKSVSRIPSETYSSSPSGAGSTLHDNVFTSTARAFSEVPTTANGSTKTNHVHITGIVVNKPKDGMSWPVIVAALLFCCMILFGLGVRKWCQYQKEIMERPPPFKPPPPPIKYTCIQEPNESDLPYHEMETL

[4] = target: T4, blood derived cynomolgus monkey CD96v2 on transiently transfected HEK cells (cynomolgus monkey); test: flow cytometry on transiently transfected HEK cells (Cyno blood derived CD96v2)
T4 construct: also called Blood derived Cyno CD96v2

[5] = target: T5, recombinant cynomolgus monkey CD96v2 (cynomolgus monkey, UniProt A0A2K5TWV6 22-487, biotinylated (site not stated)); test: MSD-SET solution equilibrium titration, antibody titrated against constant biotinylated CD96, free antigen detected
T5 construct: Soluble recombinant protein used in MSD-SET; also called cynomolgus monkey biotinylated CD96 protein
T5 sequence: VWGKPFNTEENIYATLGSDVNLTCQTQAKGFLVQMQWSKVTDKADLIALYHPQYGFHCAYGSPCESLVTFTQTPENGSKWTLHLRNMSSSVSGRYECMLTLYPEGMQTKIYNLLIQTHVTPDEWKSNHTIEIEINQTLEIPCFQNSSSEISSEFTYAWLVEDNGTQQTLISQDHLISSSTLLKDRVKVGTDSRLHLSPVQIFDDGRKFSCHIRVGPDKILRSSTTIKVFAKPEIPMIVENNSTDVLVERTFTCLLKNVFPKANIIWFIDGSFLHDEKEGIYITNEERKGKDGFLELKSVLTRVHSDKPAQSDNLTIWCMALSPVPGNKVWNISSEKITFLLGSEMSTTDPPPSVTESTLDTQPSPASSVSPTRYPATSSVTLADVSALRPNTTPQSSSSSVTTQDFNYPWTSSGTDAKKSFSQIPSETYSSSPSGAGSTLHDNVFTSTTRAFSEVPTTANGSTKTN

B1: 42Y073-86F08-66 (antibody)
heavy: not shown
light: DIQLTQSPSSLSASVGDRVTITCRASQSISSYLNWYQQKPGKAPKLLIYAASSLQSGVPSRFSGSGSGTDFTLTISSLQPEDFATYYCQQVLHTITFGGGTKVEIKRTVAAPSVFIFPPSDEQLKSGTASVVCLLNNFYPREAKVQWKVDNALQSGNSQESVTEQDSKDSTYSLSSTLTLSKADYEKHKVYACEVTHQGLSSPVTKSFNRGEC
notes: also called GSK 6097608; GSK6097608
EC50 [1]: 0.05 nM | IC50 (read off the curve) [2]: ~0.5 nM | EC50 (read off the curve) [3]: ~7 nM | EC50 (read off the curve) [4]: ~7 nM | IC50 (read off the curve) [5]: ~0.4 nM
